# According to US20090292003A1:
# Target: short 17-residues peptide (cargo titrated against CADY-2)
# Assay: steady state Trp fluorescence quenching, fixed CADY (0.1 uM) titrated with cargo peptide in PBS, quadratic fit
binder,measurement,value
GLWRALWRALWRSLWKLKWKV (HELM PEPTIDE1{[ac].G.L.W.R.A.L.W.R.A.L.W.R.S.L.W.K.L.K.W.K.V.[SCCN[*:1]]}$$$$V2.0; SMILES CC(=O)NCC(=O)N[C@@H](CC(C)C)C(=O)N[C@@H](Cc1c[nH]c2ccccc12)C(=O)N[C@@H](CCCNC(=N)N)C(=O)N[C@@H](C)C(=O)N[C@@H](CC(C)C)C(=O)N[C@@H](Cc1c[nH]c2ccccc12)C(=O)N[C@@H](CCCNC(=N)N)C(=O)N[C@@H](C)C(=O)N[C@@H](CC(C)C)C(=O)N[C@@H](Cc1c[nH]c2ccccc12)C(=O)N[C@@H](CCCNC(=N)N)C(=O)N[C@@H](CO)C(=O)N[C@@H](CC(C)C)C(=O)N[C@@H](Cc1c[nH]c2ccccc12)C(=O)N[C@@H](CCCCN)C(=O)N[C@@H](CC(C)C)C(=O)N[C@@H](CCCCN)C(=O)N[C@@H](Cc1c[nH]c2ccccc12)C(=O)N[C@@H](CCCCN)C(=O)N[C@H](C(=O)NCCS)C(C)C) [CADY-2 (Ac-…-Cya)],Kd,19 nM
